The data set concerns the molecule itself. The data set can be described thus: crystal structure; MmMK with mevalonate (2.10 Å) or 5-phosphomevalonate (2.46 Å); space group P2(1)2(1)2(1), two molecules in the asymmetric unit; 100 mM Bis-Tris pH 5.5, sodium potassium tartrate, PEG 8,000 or 10,000.

B1: mevalonate kinase from Methanosarcina mazei (enzyme)
chain: MVSCSAPGKIYLFGEHAVVYGETAIACAVELRTRVRAELNDSITIQSQIGRTGLDFEKHPYVSAVIEKMRKSIPINGVFLTVDSDIPVGSGLGSSAAVTIASIGALNELFGFGLSLQEIAKLGHEIEIKVQGAASPTDTYVSTFGGVVTIPERRKLKTPDCGIVIGDTGVFSSTKELVANVRQLRESYPDLIEPLMTSIGKISRIGEQLVLSGDYASIGRLMNVNQGLLDALGVNILELSQLIYSARAAGAFGAKITGAGGGGCMVALTAPEKCNQVAEAVAGAGGKVTITKPTEQGLKVD
notes: mevalonate kinase (MmMK), Methanosarcina mazei; codon-optimized gene cloned into pSKB3 (modified pET28b); also called MmMK; MK; source: E. coli BL21(DE3), purified (Ni-NTA)
On to B1, for which the binding result is recorded as “binds”.

Source of the values: article PMC6283576, “Structural insight into substrate and product binding in an archaeal mevalonate kinase” (PLoS ONE, 2018).
